Five molecules from US20210095014A1 (NGM BIOPHARMACEUTICALS, published 2021) can be followed below.

Assay [1] concerns the target T1, SE1 peptide of human ANGPTL8 (amino acids 25-60) (human).
T1 construct: also called hSE1; hSE1 peptide
T1 peptide: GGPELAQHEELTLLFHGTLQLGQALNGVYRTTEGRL
The assay can be described thus: BIACORE (SPR), antibody from hybridoma supernatant captured by anti-mouse Fc, peptide injected, 25 C. As for the experimental part: (§1) The binding affinities of antibodies 1E5, 1A8, and 1E9 to human ANGPTL8 were measured using a BIACORE system (GE Healthcare LifeSciences). Briefly, anti-mouse Fc antibody (Sigma-Aldrich) was immobilized on all four flow cells of a CM5 chip using amine coupling reagents (GE Healthcare LifeSciences). Antibody from hybridoma supernatants were captured on flow cells 2, 3, and 4 using flow cell 1 as a reference. The SE1 peptide of human ANGPTL8 (hSE1; SEQ ID NO:6), a corresponding SE1 peptide of cynomolgus monkey ANGPTL8 (cSE1; SEQ ID NO:67), or human ANGPTL8 was injected at a flow rate of 50 μL/min at 25° C. Kinetic data were collected over time and fit using the simultaneous global fit equation to yield affinity constants (KD values) for each antibody.
(§2) Assay results are shown in Table 4 and the BIACORE result for 1E5 binding to hANGPTL8 (NusA-hANGPTL8 fusion protein) is shown in FIG. 4.
Background: SPR reads the build-up and loss of mass on a sensor chip optically.

Assay [2] has as its target T2, SE1 peptide of cynomolgus monkey ANGPTL8 (amino acids 25-60) (cynomolgus monkey).
T2 construct: also called cSE1; cSE1 peptide
T2 peptide: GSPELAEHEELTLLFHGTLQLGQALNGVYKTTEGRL
Described as above. As for the experimental part:
as §1, §2

Assay [3] deals with T3, NusA-hANGPTL8 fusion protein (human, UniProt Q6UXH0 22-198).
T3 construct: Expressed in E. coli BL21 and captured on a chelating Sepharose column; also called hANGPTL8 (NusA-hANGPTL8 fusion protein); not shown: bacterial NusA protein, fusion partner
T3 sequence: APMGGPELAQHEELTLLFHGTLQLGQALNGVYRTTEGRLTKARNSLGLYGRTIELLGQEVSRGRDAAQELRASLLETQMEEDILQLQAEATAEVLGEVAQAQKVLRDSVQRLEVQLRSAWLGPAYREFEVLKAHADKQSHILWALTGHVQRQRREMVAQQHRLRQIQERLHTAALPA
The assay can be described thus: BIACORE (SPR), antibody from hybridoma supernatant captured by anti-mouse Fc, NusA-hANGPTL8 injected, 25 C. As for the experimental part:
as §1, §2

Assay [4] addresses T1, SE1 peptide of human ANGPTL8 (amino …). The assay can be described thus: BIACORE (SPR); chimeric 1E5 (murine variable regions, human Fc).
Assay [5] shares this target. The assay can be described thus: BIACORE (SPR); humanized antibody Hz1E5.

B1: anti-ANGPTL8 antibody 1E5 (antibody, V domains shown)
VH: QVQLQQSGAELVKPGTSVRLSCKASGYTFTDYTIHWVKLRSGQGLEWIGWFYPGSDNIKYNAKFKDKATLTADKSSSTVYMDLGRLTSEDSAVYFCARHEAFSYYDVAWFAYWGQGTLVTVSA
VL: DVVMTQTPLSLPVSLGDQASISCRSSQSLVHSNGNTYLHWYLQKPGQSPKLLIYTVSNRFSGVPDRFSGSGSGSDFTLNFSRVEAEDLGVYFCSQTTHFPYTFGGGTKLEIK
notes: Mouse monoclonal antibody, tested from hybridoma supernatant and captured by anti-mouse Fc; also called parental 1E5 from hybridoma
By Kd is commonly meant the concentration at which binding is half-saturated. In the case of B1, the equilibrium dissociation constant (Kd) stood at 0.41 nM in assay [1], 0.67 nM in assay [2] and 0.44 nM in assay [3].

B2: anti-ANGPTL8 antibody 1A8 (antibody, V domains shown)
VH: QVQLQQSGAELVKPGASVKLSCKASGYTFTDYTIHWVKQRSGQGLEWIGWFYPGSDNIKYNEKFKDKATLTADKSSSIVYMELSRLTSEDSAVYFCARHEAYYVYDVAWFAYWGQGTLVTVSA
VL: DVVMTQTPLSLPVSLGDQASISCSSSQSLVHSNGNTFLHWFLQRPGQSPKLLIYTVSNRFSGVPDRFSGSGSGTDFTLKISRVEAEDLGVYFCSQSTHFPYTFGGGTTLEIK
notes: Mouse monoclonal antibody, tested from hybridoma supernatant and captured by anti-mouse Fc
B2: the Kd stood at 0.8 nM in assay [1], 1.04 nM in assay [2] and 2.5 nM in assay [3].

B3: anti-ANGPTL8 antibody 1E9 (antibody, V domains shown)
VH: QVQLQQSGTELVKPGASVKLSCKASGYTFTDYTIHWVKQRSGQGLEWIGWFYPGSDNIKFNAKFRDKATLTADKSSSTVYMELSRLTSEDSAVYFCARHEAFYVYDVAWFANWGQGTLVTVST
VL: DVVMTQTPLSLPVSLGDQASISCRSSQSLVHSNGNTYLHWFLQKPGQSPNLLIYTVSNRFSGVPDRFSGSGSGTDFTLKISRVEAGDLGVYFCSQSTHFPYTFGGGTKLEIK
notes: as for B2
Take B3: the Kd was determined as 0.92 nM in assay [1], 1.8 nM in assay [2] and 2.1 nM in assay [3].

B4: chimeric 1E5 antibody (antibody, V domains shown)
VH: QVQLQQSGAELVKPGTSVRLSCKASGYTFTDYTIHWVKLRSGQGLEWIGWFYPGSDNIKYNAKFKDKATLTADKSSSTVYMDLGRLTSEDSAVYFCARHEAFSYYDVAWFAYWGQGTLVTVSA
VL: DVVMTQTPLSLPVSLGDQASISCRSSQSLVHSNGNTYLHWYLQKPGQSPKLLIYTVSNRFSGVPDRFSGSGSGSDFTLNFSRVEAEDLGVYFCSQTTHFPYTFGGGTKLEIK
notes: Contains 'the murine variable regions of 1E5 and a human Fc region'; also called chimeric antibody 1E5
Turning to B4, in assay [4], the dissociation constant Kd stood at 0.35 nM.

B5: humanized anti-ANGPTL8 antibody Hz1E5 (antibody, human IgG1, kappa, V domains shown)
VH: EVQLVQSGAEVKKPGSSVKVSCKASGYTFTDYTIHWVRQAPGQGLEWMGWFYPGSDNIKYNAKFKDRATLTADKSTSTAYMELSSLRSEDTAVYYCARHEAFSYYDVAWFAYWGQGTLVTVSS
VL: DVVMTQTPLSLPVTPGEPASISCRSSQSLVHSNGNTYLHWYLQKPGQSPQLLIYTVSNRFSGVPDRFSGSGSGSDFTLKISRVEAEDVGVYFCSQTTHFPYTFGQGTKVEIKR
notes: also called Hz1E5.A1
On to B5, for which, in assay [5], the Kd is 0.9 nM.
